From publication PMC10694607

How the values were obtained:
Assay in all cases: BLI
[1] = molecular target: TRIM21–MC1 fusion protein (human) (UniProt P19474)
[2] = molecular target: TRIM21–ME2 fusion protein (human) (UniProt P19474)
[3] = molecular target: TRIM21–MH4 fusion protein (human) (UniProt P19474)

## recombinant MALT1 (BPS Bioscience), analyte in BLI (from UniProt Q9UDY8 1-824) (natural protein)
[1]
  Kd: 0.475 µM
[2]
  Kd: 0.753 µM
[3]
  Kd: 0.148 µM
